Test results as given in US20130071400A1, “LINGO binding molecules and Pharmaceutical Use Thereof” (NOVARTIS AG, priority 2006, published 2013).

System: postnatal day 7 rat cerebellar granule neurons (CGN)
Experiment: Neurite outgrowth inhibition assay on spinal cord myelin
Assay type: cell-based
Conditions: sub-nM concentrations in vitro
Experimental: A) P7 CGN cells are incubated for 16 hr on wells coated without spinal cord myelin (no SC, white bars) or wells coated with spinal cord myelin in the absence (SC, red bars) or presence of anti-LINGO-1 IgG4 antibodies, a control anti-lysozyme IgG4 antibody 3207 (green bars) or […] of the ROCK inhibitor Y27632 (yellow bar). […] The experiment is performed in three 96 well plates with an SC and no SC condition per plate to which the effects of the antibodies on that plate are compared and mean neurite length per neuron (μm) is calculated for 500 neurons per well in replicates of 10. The percentage inhibition (white text) is calculated as the percentile difference in mean neurite length/neuron between cells plated on wells coated with and without SC. The percentage disinhibition (black italic text) is calculated as the difference in mean neurite length between cells plated on SC in the presence and absence of anti-LINGO-1 antibody as a percentile of the difference between cells plated on wells coated with and without SC. *p<0.05, **p<0.01 (one way ANOVA, Holm-Sidak comparison to mean neurite length/neuron for cells plated on spinal cord myelin in the absence of antibody).
A) P7 CGN cells are incubated for 8 hr on wells coated without spinal cord myelin (no SC, white bars) or wells coated with spinal cord myelin in the absence (SC, red bars) or presence of anti-LINGO-1 IgG4 antibodies or a control anti-lysozyme IgG4 antibody 3207. The experiment is performed in three 96 well plates with an SC and no SC condition per plate to which the effects of the antibodies on that plate are compared and mean neurite length per neuron (μm) is calculated for 500 neurons per well in replicates of 10. The percentage inhibition (white text) and disinhibition (black italic text) is calculated as above. **p<0.01 (one way ANOVA, Holm-Sidak comparison to mean neurite length/neuron for cells plated on spinal cord myelin in the absence of antibody).
P7 CGN cells are incubated for 8 hr on wells coated without spinal cord myelin (no SC) or wells coated with spinal cord myelin in the absence (SC) or presence of the indicated concentrations of anti-LINGO-1 IgG4 antibodies 4784 or 4785, a control anti-lysozyme IgG4 antibody 3207 or 1 μM Y27632 (ROCK). The experiment is performed in three 96 well plates with an SC and no SC condition per plate to which the effects of the antibodies on that plate are compared and mean neurite length per neuron (μm) is calculated for 500 neurons per well in replicates of 10. The percentage inhibition (white text) and disinhibition (black italic text) is calculated as above. *p<0.05, **p<0.01 (one way ANOVA, Holm-Sidak comparison to mean neurite length/neuron for cells plated on spinal cord myelin in the absence of antibody). […]

Molecule | attenuation of the neurite outgrowth inhibitory activity of adult rat spinal cord myelin
IgG4 4785: monoclonal human anti-LINGO-1 IgG4 antibody; VL SEQ ID NO: 6, VH SEQ ID NO: 7 (antibody, V domains shown, IgG4; 4785 VH; 4785 VL) VH: QVQLQQSGPGLVKPSQTLSLTCAISGDSVSDNSAAWSWIRQSPGRGLEWLGLIYLRSKWDNDYAVSVKSRITINPDTSKNQFSLQLNSVTPEDTAVYYCARTGRADEFDVWGQGTLVTVSS VL: DIVLTQPPSVSGAPGQRVTISCSGSSSNIGNNYVSWYQQLPGTAPKLLISRNSKRPSGVPDRFSGSKSGTSASLAITGLQSEDEADYYCSTYDTFSIVFGGGTKLTVLG | significantly attenuate
IgG4 4784: monoclonal human anti-LINGO-1 IgG4 antibody; VL SEQ ID NO: 4, VH SEQ ID NO: 5 (antibody, V domains shown, IgG4; 4784 VH; 4784 VL) VH: QVQLKESGPALVKPTQTLTLTCTFSGFSLSSSGVGVGWIRQPPGKALEWLAHIGSDDDKYYSTSLKTRLTISKDTSKNQVVLTMTNMDPVDTATYYCARNQQYGDGYPGYFDYWGQGTLVTVSS VL: DIELTQPPSVSVAPGQTARISCSGDNIGNYYVYWYQQKPGQAPVLVIYEDTNRPSGIPERFSGSNSGNTATLTISGTQAEDEADYYCQSYDNLHEQVFGGGTKLTVLG | significantly attenuate
